Targets include 4A01v5; 4A01v6; 4A01v4; 4A01v8; 4A01v3-5; 4A01v3-4; 4A01v1; 4A01v3; 4A01v3-1; 4A01v3-8; 4A01v3-7; 4A01v9; 4A01v3-3.
What all share (experiment): ELISA
(In general: An ELISA detects its analyte on a solid surface through an enzyme-linked reagent.)

B1: rat (other)
chain: EAHKSEIAHRFKDLGEQHFKGLVLIAFSQYLQKCPYEEHIKLVQEVTDFAKTCVADENAENCDKSIHTLFGDKLCAIPKLRDNYGELADCCAKQEPERNECFLQHKDDNPNLPPFQRPEAEAMCTSFQENPTSFLGHYLHEVARRHPYFYAPELLYYAEKYNEVLTQCCTESDKAACLTPKLDAVKEKALVAAVRQRMKCSSMQRFGERAFKAWAVARMSQRFPNAEFAEITKLATDVTKINKECCHGDLLECADDRAELAKYMCENQATISSKLQACCDKPVLQKSQCLAEIEHDNIPADLPSIAADFVEDKEVCKNYAEAKDVFLGTFLYEYSRRHPDYSVSLLLRLAKKYEATLEKCCAEGDPPACYGTVLAEFQPLVEEPKNLVKTNCELYEKLGEYGFQNAVLVRYTQKAPQVSTPTLVEAARNLGRVGTKCCTLPEAQRLPCVEDYLSAILNRLCVLHEKTPVSEKVTKCCSGSLVERRPCFSALTVDETYVPKEFKAETFTFHSDICTLPDKEKQIKKQTALAELVKHKPKATEDQLKTVMGDFAQFVDKCCKAADKDNCFATEGPNLVARSKEALA
One may read the Kd as the constant that tells how readily two partners part at equilibrium. High values mean a looser complex, low ones a tighter complex. For the molecule B1, the Kd with 4A01v5 came to 0.26 nM; with 4A01v6, 0.273 nM; with 4A01v4 it was 0.32 nM; with 4A01v8, 0.328 nM; with 4A01v3-5, 0.162 nM; in the assay with 4A01v3-4, 0.252 nM. Besides, the Kd with 4A01v1 was 0.184 nM; with 4A01v3 it was 0.162 nM; with 4A01v3-1 it was 0.13 nM; with 4A01v3-8, 0.169 nM; with 4A01v3-7, 0.123 nM; with 4A01v9, 0.144 nM. In addition, the Kd with 4A01v3-3 turned out to be 0.152 nM.

(Values after US20250277018A1 (published 2025).)
